fluorescence, percent of CZ control (% of CZ control) data for one substance are collected here from article PMC4408115.

This experiment concerns the target SPbCZ5: leucine zipper-GGSG-LucY (from A235)-…-Avi-tag (Geobacillus species). In words: split reporter (BiFC, NanoBiT); LucY protein-fragment complementation: LucY fragments fused to antiparallel leucine zippers, co-expressed in E. cloni 10G (E. coli), 16-18 h at 37°C; whole-cell fluorescence in PBS (excitation 485 nm, emission 528 nm) as percent of CZ (zipper fused to whole LucY).

On to “SPbNZ5: His6-LucY (to H234)-GGSGSS-leucine zipper”, for which the fluorescence, percent of CZ control (% of CZ control) turned out to be 33.
